This data set addresses T1, gulono-γ-lactone oxidase (Rattus norvegicus, UniProt P10867, I85V).
T1 construct: His tag (pET30a fusion); made in house; host or cells: E. coli Rosetta(DE3), pET30a
T1 sequence (P10867 1-440 I85V): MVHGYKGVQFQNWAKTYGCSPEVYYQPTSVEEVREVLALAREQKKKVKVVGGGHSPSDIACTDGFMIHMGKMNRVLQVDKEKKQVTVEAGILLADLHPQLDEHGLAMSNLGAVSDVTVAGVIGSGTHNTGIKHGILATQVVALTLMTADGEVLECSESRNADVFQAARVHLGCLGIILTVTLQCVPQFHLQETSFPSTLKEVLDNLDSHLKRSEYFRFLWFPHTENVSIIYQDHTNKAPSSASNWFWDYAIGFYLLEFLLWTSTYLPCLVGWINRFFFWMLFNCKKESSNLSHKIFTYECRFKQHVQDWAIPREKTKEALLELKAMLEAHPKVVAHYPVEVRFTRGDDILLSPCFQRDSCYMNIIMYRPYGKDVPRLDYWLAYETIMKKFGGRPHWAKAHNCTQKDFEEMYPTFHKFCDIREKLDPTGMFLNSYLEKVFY
As to the kind of experiment: GLO assay, ascorbic acid from L-gulono-γ-lactone. It counts as biochemical. The note with it: His-Bind purified from E. coli; 2.5 mM L-gulono-γ-lactone. Here is the method: GLO activity was assayed according to the procedure described by Nishikimi (Methods in Enzymology, 62:24-30 (1979)). The assay mixture contained, in 1 mL, 50 mM potassium phosphate buffer, pH 7.5, 2.5 mM L-gulono-γ-lactone, 1 mM EDTA, and enzyme. The reaction was initiated by the addition of either substrate or enzyme, and the mixture was incubated with shaking in air for 15 minutes at 37° C. The reaction was stopped by the addition of 0.1 mL 50% trichloroacetic acid, and the precipitated protein was removed by centrifugation. The product ascorbic acid was detected by the method described in Example 9. Briefly, 0.956 mL 2,2′-dipyridyl reagent was added to 0.15 mL of the supernatant solution, and the reaction mixture was incubated at 25° C. for 15 minutes. After 15 minutes, the sample was centrifuged to remove any precipitate, and the absorbance was read at 525 nm. The 2,2′-dipyridyl reagent contained 0.056 mL ortho-phosphoric acid (85%), 0.75 mL 0.5% 2,2′-dipyridyl (prepared in hot H2O), and 0.15 mL 1% FeCl3 (in H2O). Standards of ascorbic acid (1.0 μg to 10 μg) were run in parallel with the biological samples for a standard curve. One unit is defined as the quantity that catalyzes the formation of 1 nmol of L-ascorbic acid in 1 minute under the conditions described above. Specific activity is expressed as units per mg of protein ([…]/min/mg).

This note sets out measurements from patent US20080187984A1, “Myo-inositol oxygenases” (Cargill, Incorporated, priority 2001, published 2008).

B1: GLO: gulono-γ-lactone oxidase, rat glo expressed from pET30a in E. coli Rosetta(DE3), His-Bind purified (protein, UniProt P10867 2-440, looked up)
L-gulonolactone oxidase: VHGYKGVQFQNWAKTYGCSPEVYYQPTSVEEVREVLALAREQKKKVKVVGGGHSPSDIACTDGFMIHMGKMNRVLQVDKEKKQITVEAGILLADLHPQLDEHGLAMSNLGAVSDVTVAGVIGSGTHNTGIKHGILATQVVALTLMTADGEVLECSESRNADVFQAARVHLGCLGIILTVTLQCVPQFHLQETSFPSTLKEVLDNLDSHLKRSEYFRFLWFPHTENVSIIYQDHTNKAPSSASNWFWDYAIGFYLLEFLLWTSTYLPCLVGWINRFFFWMLFNCKKESSNLSHKIFTYECRFKQHVQDWAIPREKTKEALLELKAMLEAHPKVVAHYPVEVRFTRGDDILLSPCFQRDSCYMNIIMYRPYGKDVPRLDYWLAYETIMKKFGGRPHWAKAHNCTQKDFEEMYPTFHKFCDIREKLDPTGMFLNSYLEKVFY
modifications: His tag
For the molecule B1, the “Specific Activity (purified protein)” value is recorded as 0.926 nmol/min/mg.
